Laboratory results reported in patent US20190218613A1, “METHODS OF DETECTING THE FORMATION OF CELLULAR CLUSTERS OF RNA” (The Regents of the University of California, priority 2017, published 2019).

Tested on: 47× CAG RNA
Assay: In vitro RNA phase separation/gelation assay (fluorescence micrographs, index of dispersion)
Format: biochemical
Details: proteinase K 60 U/mL, DNase I 200 U/mL, RNaseA 0.7 U/mL; 10 minutes, room temperature
Protocol: For phase separation/gelation assays, RNAs were diluted to concentrations of 0.5 ng/μL to 0.5 μg/μL in 10 mM Tris pH 7.0, 10 mM MgCl2, 25 mM NaCl buffer, unless indicated otherwise. Nuclease-free buffer stocks were purchased from Ambion. RNA was denatured at 95° C. for 3 minutes and cooled down at 1-4° C. per minute to 37° C. final temperature in a thermocycler and imaged immediately. Samples were visualized using a custom spinning disk confocal microscope (Nikon Ti-Eclipse equipped with a Yokogawa CSU-X spinning disk module) using a×100, 1.49 numerical aperture oil immersion objective and an air-cooled EM-CCD (electron multiplying charge-coupled device). The extent of phase separation/gelation was quantified by the index of dispersion (σ^2/μ) of fluorescence intensity per pixel (pixel size 83 nm×83 nm). Briefly, variance in the fluorescence intensity per image was determined, and normalized to the mean fluorescence intensity in the solution phase of the RNA. For dilute solution (<10% of imaging area occupied with clusters), this parameter reports the extent of inhomogeneity in the sample. At least 20 independent imaging areas (about 1,800 μm^2 each) were analyzed for each condition to achieve a representative measure across the sample. Each datum point in the bar graphs represents one imaging area. […]

B1: RNase A: ribonuclease enzyme (protein, UniProt P61823 27-150, looked up)
Ribonuclease pancreatic: KETAAAKFERQHMDSSTSAASSSNYCNQMMKSRNLTKDRCKPVNTFVHESLADVQAVCSQKNVACKNGQTNCYQSYSTMSITDCRETGSSKYPNCAYKTTQANKHIIVACEGNPYVPVHFDASV
With B1 the “dissolution of 47× CAG RNA clusters by enzyme treatment” value was “dissolved”.

B2: proteinase K: protease enzyme (protein, UniProt P06873 106-384, looked up)
Proteinase K: AAQTNAPWGLARISSTSPGTSTYYYDESAGQGSCVYVIDTGIEASHPEFEGRAQMVKTYYYSSRDGNGHGTHCAGTVGSRTYGVAKKTQLFGVKVLDDNGSGQYSTIIAGMDFVASDKNNRNCPKGVVASLSLGGGYSSSVNSAAARLQSSGVMVAVAAGNNNADARNYSPASEPSVCTVGASDRYDRRSSFSNYGSVLDIFGPGTSILSTWIGGSTRSISGTSMATPHVAGLAAYLMTLGKTTAASACRYIADTANKGDLSNIPFGTVNLLAYNNYQA
B2 was tested, and the “dissolution of 47× CAG RNA clusters by enzyme treatment” value was “not”.
